Laboratory results: patent publication US6911526B2, “Compounds that inhibit the interaction between signal-transducing proteins and the GLGF (PDZ/DHR) domain and uses thereof” (The Trustees of Columbia University in the City of New York, priority 1996, dated 2005)
Residue numbers refer to the chain shown, from its start. Entries after “also recorded” stand apart in the source; their conditions may differ. Where no end group is shown, it is not given here.

Columns and labels:
Fas/FAP-1 binding [1] = test: In vitro inhibition assay of Fas/FAP-1 binding (GST-Fas and in vitro-translated 35S-FAP-1); conditions: for binding of in vitro-translated FAP-1 to GST-Fas: FIG. 3A, C-terminal 15 amino acids at 1-1000 μM, human PAMP 1 mM as negative control
Protocol: HFAP-10 cDNA (Sato, et al. 1995) subcloned into the Bluescript vector pSK-II (Stratagene) was in vitro-translated from an internal methionine codon in the presence of ^35S-L-methionine using a coupled in vitro transcription/translation system (Promega, TNT lysate) and T7 RNA polymerase. The resulting ^35S-labeled protein was incubated with GST-Fas fusion proteins that had been immobilized on […] affinity beads (Pharmacia) in a buffer containing 150 mM NaCl, 50 mM Tris [pH 8.0], 5 mM DTT, 2 mM EDTA, 0.1% NP-40, 1 mM PMSF, 50 μg/ml leupeptin, 1 mM Benzamidine, and 7 μg/ml pepstatin for 16 hours at 4° C. After washing vigorously 4 times in the same buffer, associated proteins were recovered with the glutathione-Sepharose beads by centrifugation, eluted into boiling Laemmli buffer, and analyzed by SDS-PAGE and fluorography.
In vitro-translated [^35S]HFAP-1 was purified with a NAP-5 column (Pharmacia) and incubated with 3 μM of GST-fusion proteins for 16 hours at 4° C. After washing 4 times in the binding buffer, radioactivity incorporation was determined in a b counter. The percentage of binding inhibition was calculated as follows: percent inhibition=[radioactivity incorporation using GST-Fas (191-335) with peptides−radioactivity incorporation using GST-Fas (191-320) with peptides]/[radioactivity incorporation using GST-Fas (191-335) without peptides−radioactivity incorporation using GST-Fas (191-320) without peptides]. n=3.

[2] = test system: DLD-1 human colon cancer cells; test: Microinjection of synthetic tripeptides into DLD-1 cells, Fas-induced apoptosis; assay type: cell-based; conditions: tripeptide 100 mM microinjected into cytoplasm, Fas monoclonal antibody CH11 500 ng/ml, 16-20 hours postinjection, condensed chromatin (Hoechst 33342)
Protocol: DLD-1 human colon cancer cells were cultured in RPMI 1640 medium containing 10% FCS. For microinjection, cells were plated on CELLocate (Eppendorf) at 1×10^5 cells/2 ml in a 35 mm plastic culture dish and grown for 1 day. Just before microinjection, Fas monoclonal antibodies CH11 (MBL International) was added at the concentration of 500 ng/ml. All microinjection experiments were performed using an automatic microinjection system (Eppendorf transjector 5246, micro-manipulator 5171 and Femtotips) (Pantel, et al. 1995). Synthetic tripeptides were suspended in 0.1% (w/v) FITC-Dextran (Sigma)/K-PBS at the concentration of 100 mM. The samples were microinjected into the cytoplasmic region of DLD-1 cells. Sixteen to 20 hours postinjection, the cells were washed with PBS and stained with 10 μg/ml Hoechst 33342 in PBS. After incubation at 37° C. for 30 minutes, the cells were photographed and the cells showing condensed chromatin were counted as apoptotic.
For each experiment, 25-100 cells were microinjected. Apoptosis of microinjected cells was determined by assessing morphological changes of chromatin using phase contrast and fluorescence microscopy (Wang, et al., 1995; McGahon, et al., 1995). The data are means +/− S.D. for two or three independent determinations.

Fas/FAP-1 binding [3] = test: Inhibition of binding of GST-FAP-1 to native Fas extracted from Jurkat T-cells (Western analysis); conditions: GST-FAP-1, Jurkat T-cell extracts; FIGS. 4C and 4D
Protocol: GST-fusion proteins with or without FAP-1 were incubated with cell extracts from Jurkat T-cells expressing Fas. The bound Fas was detected by Western analysis using anti-Fas monoclonal antibody (F22120, Transduction Laboratories). The tripeptides, Ac-SLV and Ac-SLY were used for the inhibition assay of Pas/FAP-1 binding.

LexA-PLV fusion protein = molecular target: T1, LexA-PLV fusion protein (UniProt P0A7C2 1-202); test: yeast two-hybrid (growth on histidine-deficient medium)
T1 construct: Yeast two-hybrid bait; also called pBTM116 (LexA)-PLV; -PLy
T1 sequence: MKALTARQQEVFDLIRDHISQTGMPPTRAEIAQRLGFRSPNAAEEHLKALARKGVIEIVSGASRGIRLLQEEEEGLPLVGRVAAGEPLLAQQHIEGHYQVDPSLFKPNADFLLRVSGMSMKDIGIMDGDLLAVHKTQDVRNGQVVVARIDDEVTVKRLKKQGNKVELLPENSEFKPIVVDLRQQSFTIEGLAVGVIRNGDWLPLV

LexA-SLA fusion protein = molecular target: T2, LexA-SLA fusion protein (UniProt P0A7C2 1-202); test: as above
T2 construct: Yeast two-hybrid bait; also called pBTM116 (LexA)-SLA
T2 sequence: T1 sequence with P203S, V205A

LexA-SLY fusion protein = molecular target: T3, LexA-SLY fusion protein (UniProt P0A7C2 1-202); test: as above
T3 construct: Yeast two-hybrid bait; also called pBTM116 (LexA)-SLY
T3 sequence: T1 sequence with P203S, V205Y

FAP-1 = test: Interaction of C-terminal tripeptides fused to LexA with FAP-1 in yeast two-hybrid system; assay type: cell-based; conditions: LexA fusion co-transformed into yeast L40 with pVP16-FAP-1; FIG. 4A
Source text: The bait plasmids, pBTM116 (LexA)-SLV, -PLV, -SLY, and -SLA, were constructed and transformed into L40-strain with pVP16-FAP-1 or -ras. Six independent clones from each transformants were picked up for the analysis of growth on histidine-deficient medium. GST-Fas, -SLV, and PLV were purified with GST-Sepharose 4B affinity beads (Pharmacia). The methods for in vitro binding are described above.

## human PAMP peptide: N-terminal 20 amino acids of proadrenomedullin, negative control (ARLDVASEFRKKWNKWALSR) [reference compound]
Fas/FAP-1 binding [1]
  binding of in vitro-translated FAP-1 to GST-Fas: no effect

## DSENSNFRNEIQSLV (Ac-DSENSNFRNEIQSLV) [synthetic 15 amino acids of Fas, synthetic peptide of the C-terminal 15 amino acids of Fas]
Fas/FAP-1 binding [1]
  binding of in vitro-translated FAP-1 to GST-Fas: dramatically reduced and dependent on the concentration

## Ac-SLV-COOH (Ac-Ser-Leu-Val-OH) [acetylated tripeptide of the three C-terminal amino acids of Fas]
[2]
  induction of apoptosis in microinjected DLD-1 cells: dramatically induced apoptosis
Fas/FAP-1 binding [1]; FIG. 3B, acetylated synthetic peptides
  inhibitory effect on the binding of FAP-1 to Fas, truncated acetylated peptides: same level of inhibitory effect
Fas/FAP-1 binding [3]
  binding activity of FAP-1 to Fas proteins extracted from Jurkat T-cells: abolished in a dose-dependent manner

## Ac-SLY: acetylated synthetic tripeptide SLY, used as non-binding control (Ac-Ser-Leu-Tyr)
[2]
  induction of apoptosis in microinjected DLD-1 cells: did not; also recorded: only one cell of the area appeared apoptotic
Fas/FAP-1 binding [3]
  binding activity of FAP-1 to Fas proteins extracted from Jurkat T-cells: not

B1: FAP-1 expressed from plasmid pVP16-31 (VP16 fusion, yeast two-hybrid prey) (other)
chain: KMNFKTFSSSPPKPGDIFEVELAKNDNSLGISVTGGVNTSVRHGGIYVKAVIPQGAAESDGRIHKGDRVLAVNGVSLEGATHKQAVETLRNTGQVVHLLLEKGQSPTSKEHVPVTPQCTLS
notes: also called pVP16-FAP-1; Fas-associated phosphatase-1
LexA-PLV fusion protein
  binding result: no binding
LexA-SLA fusion protein
  binding result: no binding
LexA-SLY fusion protein
  binding result: no binding

B2: LexA-SLV: LexA DNA binding domain fused to tripeptide SLV (yeast bait) (protein)
chain: T1 sequence with P203S
FAP-1
  association with FAP-1 in yeast (growth on histidine-deficient medium): associated with FAP-1

B3: LexA-SLA: LexA DNA binding domain fused to tripeptide SLA (yeast bait) (protein)
chain: T1 sequence with P203S, V205A
FAP-1
  association with FAP-1 in yeast (growth on histidine-deficient medium): did not

B4: LexA-PLV: LexA DNA binding domain fused to tripeptide PLV (yeast bait) (protein)
chain: T1 sequence
FAP-1
  association with FAP-1 in yeast (growth on histidine-deficient medium): did not

B5: LexA-PLY: LexA DNA binding domain fused to tripeptide PLY (yeast bait) (protein)
chain: T1 sequence with V205Y
FAP-1
  association with FAP-1 in yeast (growth on histidine-deficient medium): did not

B6: LexA-SLY: LexA DNA binding domain fused to tripeptide SLY (yeast bait) (protein)
chain: T1 sequence with P203S, V205Y
FAP-1
  association with FAP-1 in yeast (growth on histidine-deficient medium): did not
